Assays:
[1] = test system: colon cancer cells HCT-116; assay: MTT assay, proliferation of colon cancer cell HCT-116; format: cell-based
Method: The MTT assay was used to detect the inhibitory effect of the integrin blocker fusion protein obtained in Example 1 on the proliferation of various tumor cells, including melanoma cell B16F10, gastric cancer cell MGC-803, lung cancer cell A549, liver cancer cell Hep-G2, breast cancer cell MDA-MB-231, colon cancer cell HCT-116, human glioma U87, and cervical cancer cell Hela.
The tumor cells were cultured in a 5% CO2 incubator at 37° C. to a density of 90% or more, and collected by trypsinization. The cells were resuspended in the culture liquid and counted under a microscope. The cell concentration was adjusted to 3.0×10^4 cells/mL. The cell suspension was inoculated into a 96-well plate at 100 μL per well and cultured overnight in a 5% CO2 incubator at 37° C. […] After the cells were fully adhered, each dilution was added to a 96-well plate at 100 μL per well, respectively. […] 20 μL of 5 mg/mL MTT was added to each well of a 96-well plate, and incubation was continued for 4 hours. The medium was aspirated and 100 μL of DMSO per well were added to dissolve. The absorbance was measured at 570 nm with a microplate reader with a reference wavelength of 630 nm, and the proliferation inhibition (PI) was calculated. The formula is as follows: […]
where Ntest is the OD value of the test group and Ncontrol is the OD value of the blank control group.
The test was repeated 5 times independently. The results obtained from the test were calculated as mean±SD, and statistical t-test was performed. P<0.05 was considered as a significant difference, and P<0.01 was considered as an extremely significant difference.

[2] = test system: adjuvant arthritis in rat; assay: Chronic inflammation of adjuvant arthritis in rat; format: in vivo; set-up: key to Clinical score Whole body: sum of hind/fore foot, ear, nose, tail scores; full score 8; conditions: for Clinical score Whole body: full score 8; for Foot swelling degree Left: left hind foot (primary inflammation); for Clinical score Arthritis index: maximum score 16; for Foot swelling degree Right: right foot (secondary inflammation)
Method: 80 SPF SD rats were randomly divided into 8 groups. Rats in each group were lightly anesthetized with ether. Then, 0.1 mL of complete Freund's adjuvant containing inactivated Mycobacterium tuberculosis was injected subcutaneously into the left hind foot of the rats. Primary arthritis occurred in the left hind foot of the rat, and at about 13 days post-modeling, secondary arthritis occurred in the right hind foot. A blank control group was injected with an equal volume of physiological saline. The drug was administered 13 days after modeling. A methotrexate group was administered by injection every 5 days for 15 days, 4 times in total; the fusion protein I, protein II, protein III, protein IV, and protein V at high, medium and low doses (128 mg/kg, 32 mg/kg, 8 mg/kg) were administered by injection every 5 days for 15 days.
Using a foot volume measuring method, a marker was made with a fat-soluble marker at the left and right posterior ankle joint of each rat, and the left and right hind feet of the animal were respectively immersed in the volume measuring device. The immersion depth was bounded by the marker, and the reading value at the scale pipette of the device was the initial volume of the animal's left and right hind feet.
The day of modeling was considered as the 0th day and recorded as d0. The volume of the left hind foot (modeling foot) was measured from the first day d1 after modeling every 2 days. When the swelling occurred (i.e., secondary arthritis occurred) at the contralateral non-inflammatory foot (right hind foot), the administration was started. The volume of the left and right hind feet was measured every 2 days, and the degree of primary and secondary toe swelling was determined, which was calculated as follows:
Primary toe swelling (mL)=left hind foot volume on the day of measurement-initial volume of left hind foot
Secondary toe swelling (mL)=right hind foot volume on the day of measurement-initial volume of right hind foot 2. Clinical score
Systemic score: the systemic score was taken every 2 days after the onset of secondary inflammation.
Hind foot: no swelling=0 score, one hind foot swelling=1 score, two hind feet swelling=2 scores;
Forefoot: no swelling=0 score, one forefoot swelling=1 score, two forefeet swelling=2 scores;
Ear: no redness and nodules=0 score, redness or nodules in one ear=1 score, redness and nodules in both ears=2 scores;
Nose: no swelling=0 score, obvious swelling=1 score;
Tail: no nodules=0 score, with nodules=1 score; full score was 8 scores.
Arthritis index score: the arthritis index score was performed every 2 days after the onset of secondary inflammation.
The initial body weight of each group of rats was weighed before modeling. The body weight was measured every 2 days from d1 after modeling, from which the initial body weight was subtracted to obtain the weight gain of each group of rats.

[3] = test system: peritoneal capillary permeability in mice; assay: Peritoneal capillary permeability in mice (HAc, Evans blue); format: in vivo; conditions: for Exudation rate (OD590) / PI (%): mice
Method: The drug was administered once by injection (EDSM needed to be administered twice a day), and the blank model group was given an equal volume of physiological saline and fed normally. On the 5th day, a 5 g/L Evans blue physiological saline solution was injected into the tail vein at […], followed by intraperitoneal injection ([…]) of a HAc solution (6 mL/L) to induce inflammation. After 20 min, the mice were sacrificed by cervical dislocation. 5 mL of physiological saline was intraperitoneally injected, the abdomen was gently rubbed for 2 min, the abdominal cavity was cut, a peritoneal washing solution was collected and centrifuged at 4000 rpm for 10 min, 1 mL of supernatant was taken, and 3 mL of physiological saline was added to obtain 4 mL of dilution. The absorbance OD value of the dilution was measured by an ultraviolet spectrophotometer at a wavelength of 590 nm, and the amount of pigment exudation was expressed by the OD590 nm value, and the peritoneal capillary permeability in mice was examined.

B1: Protein II: IgG2-Fc linked to antiangiogenesis polypeptide EDSM-Y via a flexible linker; SEQ ID NO: 17 (protein)
chain: ERKCCVECPPCPAPPVAGPSVFLFPPKPKDTLMISRTPEVTCVVVDVSHEDPEVQFNWYVDGVEVHNAKTKPREEQFNSTFRVVSVLTVVHQDWLNGKEYKCKVSNKGLPAPIEKTISKTKGQPREPQVYTLPPSREEMTKNQVSLTCLVKGFYPSDISVEWESNGQPENNYKTTPPMLDSDGSFFLYSKLTVDKSRWQQGNVFSCSVMHEALHNHYTQKSLSLSPGKGGGGSGGGGSGGGGSFQPVLHLVALNSPLSGGMRGIRGADFQCFQQARAVGLAGTFRAGGGGRGD
A570 nm/A630 nm ([1]; dose 1 μg/mL): 0.8310 ± 0.0394
PI (%) ([1]; dose 1 μg/mL): 5.59%
A570 nm/A630 nm ([1]; dose 2 μg/mL): 0.7925 ± 0.0415
PI (%) ([1]; dose 2 μg/mL): 9.96%
A570 nm/A630 nm ([1]; dose 4 μg/mL): 0.7555 ± 0.0283
PI (%) ([1]; dose 4 μg/mL): 14.17%
A570 nm/A630 nm ([1]; dose 8 μg/mL): 0.7023 ± 0.0347
PI (%) ([1]; dose 8 μg/mL): 20.21%
A570 nm/A630 nm ([1]; dose 16 μg/mL): 0.6556 ± 0.0292
PI (%) ([1]; dose 16 μg/mL): 25.52%
A570 nm/A630 nm ([1]; dose 32 μg/mL): 0.6113 ± 0.0279
PI (%) ([1]; dose 32 μg/mL): 30.55%
A570 nm/A630 nm ([1]; dose 64 μg/mL): 0.5498 ± 0.0374
PI (%) ([1]; dose 64 μg/mL): 37.54%
A570 nm/A630 nm ([1]; dose 128 μg/mL): 0.4898 ± 0.0289
PI (%) ([1]; dose 128 μg/mL): 44.35%
A570 nm/A630 nm ([1]; dose 256 μg/mL): 0.4497 ± 0.0316
PI (%) ([1]; dose 256 μg/mL): 48.91%
Weight gain ([2]; 8 mg/kg): 44.96 ± 12.11 g
Clinical score Whole body ([2]; 8 mg/kg): 2.23 ± 0.26
Foot swelling degree Left ([2]; 8 mg/kg): 1.95 ± 0.12 mL
Clinical score Arthritis index ([2]; 8 mg/kg): 6.92 ± 0.55
Foot swelling degree Right ([2]; 8 mg/kg): 1.77 ± 0.54 mL
Weight gain ([2]; 32 mg/kg): 48.10 ± 9.19 g
Clinical score Whole body ([2]; 32 mg/kg): 1.81 ± 0.32
Foot swelling degree Left ([2]; 32 mg/kg): 1.60 ± 0.19 mL
Clinical score Arthritis index ([2]; 32 mg/kg): 5.69 ± 0.37
Foot swelling degree Right ([2]; 32 mg/kg): 1.54 ± 0.33 mL
Weight gain ([2]; 128 mg/kg): 50.83 ± 15.19 g
Clinical score Whole body ([2]; 128 mg/kg): 1.54 ± 0.19
Foot swelling degree Left ([2]; 128 mg/kg): 1.35 ± 0.14 mL
Clinical score Arthritis index ([2]; 128 mg/kg): 4.17 ± 0.64
Foot swelling degree Right ([2]; 128 mg/kg): 1.35 ± 0.73 mL
therapeutic effect on primary arthritis (primary toe swelling degree) ([2]; high dose groups, compared with the model group): effective
inhibition of the increase of peritoneal capillary permeability induced by glacial acetic acid ([3]; in words): could significantly inhibit the increase of peritoneal capillary permeability
Exudation rate (OD590) ([3]; dose 8 mg/kg): 0.51 ± 0.06
PI (%) ([3]; dose 8 mg/kg): 26.09%
Exudation rate (OD590) ([3]; dose 32 mg/kg): 0.34 ± 0.03
PI (%) ([3]; dose 32 mg/kg): 50.72%
Exudation rate (OD590) ([3]; dose 128 mg/kg): 0.32 ± 0.07
PI (%) ([3]; dose 128 mg/kg): 53.62%

From US11407811B2, “Fusion protein, preparation method therefor and use thereof” (JIANGSU RONGTAI BIOTECH CO., LTD., priority 2017, dated 2022)
